Measured values: article PMC5505988

Biological target: HLA-A*11:01 heavy chain with β2-microglobulin (human)

## SSCS, N-terminal 4-mer of EBV LMP2(340–349) (peptide)
  melting temperature (Tm) of the pHLA complex refolded with SSCS + SCPLSK (m9 + m10), thermofluor thermal shift assay: 50.3 °C

## SSCSS, N-terminal 5-mer of EBV LMP2(340–349) (peptide)
  melting temperature (Tm) of the pHLA complex refolded with SSCSS + SCPLSK (m11 + m10), thermofluor thermal shift assay: 49.7 °C

## SSCSSC, EBV LMP2(340–345), N-terminal 6-mer (peptide)
  melting temperature (Tm) of the pHLA complex refolded with SSCSSC + SCPLSK (m13 + m10), thermofluor thermal shift assay: 48.7 °C
  melting temperature (Tm) of the pHLA complex refolded with SSCSSC + SSCPLSK (m13 + m5), thermofluor thermal shift assay: 49.4 °C
